This experiment addresses T1, soluble human CD3ε chain (human, UniProt P07766 23-126, limits assumed).
T1 construct: the text says soluble human CD3ε chain; also called human CD3 epsilon chain
The experiment can be described thus: SPR (Biacore).

Changes are numbered by the printed parent chain.

T1 sequence (P07766 23-126 limits assumed): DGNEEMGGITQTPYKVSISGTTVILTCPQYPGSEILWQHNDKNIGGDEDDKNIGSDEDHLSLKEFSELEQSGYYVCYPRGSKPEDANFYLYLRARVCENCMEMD

B1: TR01H040-E22Hh/none-Hi-Kn010G3/L0223-k0 (antibody, human IgG1, kappa, L234A L235A, N297A)
heavy: QVQLVESGGGLVQPGRSLRLSCAASGFTFSNAWMHWVRQAPGKGLEWVAQIKDKSQNYATYYAESVKGRFTISRADSKNSIYLQMNSLKTEDTAVYYCRYVHYSASYGVDAWGQGTTVTVSSASTKGPSVFPLAPSSKSTSGGTAALGCLVKDYFPEPVTVSWNSGALTSGVHTFPAVLQSSGLYSLSSVVTVPSSSLGTQTYICNVNHKPSNTKVDKKVEPKSCDKTHTCPPCPAPEAAGGPSVFLFPPKPKDTLMISRTPEVTCVVVDVSHEDPEVKFNWYVDGVEVHNAKTKPREEQYASTYRVVSVLTVLHQDWLNGKEYKCKVSNKALPAPIEKTISKAKGQPREPQVYTLPPSRCELTKNQVSLSCAVKGFYPSDIAVEWESNGQPENNYKTTPPVLDSDGSFFLVSKLTVDKSRWQQGNVFSCSVMHEALHNHYTQKSLSLSPDYKDDDDK
chain: EPKSSDKTHTCPPCPAPELLGGPSVFLFPPKPKDTLMISRTPEVTCVVVDVSHEDPEVKFNWYVDGVEVHNAKTKPREEQYNSTYRVVSVLTVLHQDWLNGKEYKCKVSNKALPAPIEKTISKAKGQPREPQVCTLPPSRDELTKNQVSLWCLVKGFYPSDIAVEWESNGQPENNYKTTPPVLDSDGSFFLYSKLTVDKSRWQQGNVFSCSVMHEALHNRYTQKSLSLSP
light: DIVMTQSPLSLPVTPGEPASISCRSSQSPVHSNRNTYIHWYQQKPGQAPRLLIYKVSNRLSGVPDRFSGSGSGTDFTLKISRVEAEDVGVYYCYQGTQVPYTFGQGTKLEIKRTVAAPSVFIFPPSDEQLKSGTASVVCLLNNFYPREAKVQWKVDNALQSGNSQESVTEQDSKDSTYSLSSTLTLSKADYEKHKVYACEVTHQGLSSPVTKSFNRGEC
notes: single-arm
Regarding B1, binding was put at a Kd of 8.15 nM.

B2: TR01H046-E22Hh/none-Hi-Kn010G3/L0000-k0 (antibody, human IgG1, kappa, L234A L235A, N297A)
heavy: B1 heavy with A23S, A111Y
chain: B1 chain
light: B1 light with P29L, I38L, L60F, Y94G
notes: single-arm
Consider B2, for which the Kd came out at 42.3 nM. This Kd is about 5.2-fold higher than that of the molecule before.

B3: TR01H040-E22Hh/none-Hi-Kn010G3/L0233-k0 (antibody, human IgG1, kappa, L234A L235A, N297A)
heavy: B1 heavy
chain: B1 chain
light: B1 light with S28E, P29L, I38L, L60F, Y94G
notes: single-arm
B3 registered a Kd of 40.1 nM.

B4: TR01H040-E22Hh/none-Hi-Kn010G3/L0224-k0 (antibody, human IgG1, kappa, L234A L235A, N297A)
heavy: B1 heavy
chain: B1 chain
light: B1 light with L60F, S61P
notes: single-arm
In the case of B4, the Kd was found to be 5.06 nM.

B5: TR01H040-E22Hh/none-Hi-Kn010G3/L0239-k0 (antibody, human IgG1, kappa, L234A L235A, N297A)
heavy: B1 heavy
chain: B1 chain
light: B1 light with Q27E, I38L, L60F, S61R, Y94G
notes: single-arm
For the molecule B5, the dissociation constant Kd was 23.1 nM.

B6: TR01H040-E22Hh/none-Hi-Kn010G3/TR01L018-k0 (antibody, human IgG1, kappa, L234A L235A, N297A)
heavy: B1 heavy
chain: B1 chain
light: B1 light with R24Q, S25A, Q27E, I38L, Q42L, A48S, R50Q, L60F, Y94G
notes: single-arm
B6: the Kd is 45.1 nM.

B7: TR01H042-E22Hh/none-Hi-Kn010G3/L0000-k0 (antibody, human IgG1, kappa, L234A L235A, N297A)
heavy: B1 heavy with L11V, R16G
chain: B1 chain
light: B1 light with P29L, I38L, L60F, Y94G
notes: single-arm
As for B7, the Kd came out at 44.8 nM.

B8: TR01H040-E22Hh/none-Hi-Kn010G3/TR01L012-k0 (antibody, human IgG1, kappa, L234A L235A, N297A)
heavy: B1 heavy
chain: B1 chain
light: B1 light with P29L, I38L, Q42L, A48S, R50Q, L60F, S61R, Y94G, L109V, K112E
notes: single-arm
In turn, B8 returned a dissociation constant (Kd) of 42.2 nM. This Kd and that of the molecule before are within 1.5-fold of each other.

B9: TR01H040-E22Hh/none-Hi-Kn010G3/L0250-k0 (antibody, human IgG1, kappa, L234A L235A, N297A)
heavy: B1 heavy
chain: B1 chain
light: B1 light with S25P, H39Q, L60F, Y94I
notes: single-arm
Turning to B9, binding was characterised by a dissociation constant (Kd) of 21.5 nM.

B10: TR01H040-E22Hh/none-Hi-Kn010G3/TR01L011-k0 (antibody, human IgG1, kappa, L234A L235A, N297A)
heavy: B1 heavy
chain: B1 chain
light: B1 light with R24Q, S25A, Q27E, P29L, I38L, L60F, S61R, Y94G, L109V, K112E
notes: single-arm
In the case of B10, the Kd is 35.7 nM.

B11: TR01H040-E22Hh/none-Hi-Kn010G3/TR01L013-k0 (antibody, human IgG1, kappa, L234A L235A, N297A)
heavy: B1 heavy
chain: B1 chain
light: DIVMTQSPLSLPVTPGEPASISCQASESLVHSNRNTYLHWYLQKPGQSPQLLIYKVSNRFRGVPDRFSGSGSGTDFTLKISRVEAEDVGVYYCGQGTQVPYTFGQGTKVEIERTVAAPSVFIFPPSDEQLKSGTASVVCLLNNFYPREAKVQWKVDNALQSGNSQESVTEQDSKDSTYSLSSTLTLSKADYEKHKVYACEVTHQGLSSPVTKSFNRGEC
notes: single-arm
The molecule B11 registered a Kd of 41.5 nM.

B12: TR01H040-E22Hh/none-Hi-Kn010G3/L0231-k0 (antibody, human IgG1, kappa, L234A L235A, N297A)
heavy: B1 heavy
chain: B1 chain
light: B1 light with L60F, V99W
notes: single-arm
Regarding B12, the Kd was 7.75 nM.

B13: TR01H040-E22Hh/none-Hi-Kn010G3/TR01L019-k0 (antibody, human IgG1, kappa, L234A L235A, N297A)
heavy: B1 heavy
chain: B1 chain
light: B11 light with L29P, R61S, G94Y, V109L, E112K
notes: single-arm
With B13, the Kd was 3.2 nM.

B14: TR01H040-E22Hh/none-Hi-Kn010G3/TR01L010-k0 (antibody, human IgG1, kappa, L234A L235A, N297A)
heavy: B1 heavy
chain: B1 chain
light: B11 light with Q24R, A25S, E27Q, L42Q, S48A, Q50R
notes: single-arm
Consider B14, for which the Kd was 32.8 nM.

B15: TR01H040-E22Hh/none-Hi-Kn010G3/L0235-k0 (antibody, human IgG1, kappa, L234A L235A, N297A)
heavy: B1 heavy
chain: B1 chain
light: B1 light with S28E, I38L, L60F
notes: single-arm
Turning to B15, the Kd was determined as 2.81 nM.

B16: TR01H040-E22Hh/none-Hi-Kn010G3/TR01L015-k0 (antibody, human IgG1, kappa, L234A L235A, N297A)
heavy: B1 heavy
chain: B1 chain
light: B1 light with I38L, Q42L, A48S, R50Q, L60F, Y94G
notes: single-arm
On to B16, for which the Kd worked out at 39.5 nM. Against the preceding molecule, the Kd is about 14-fold higher.

B17: TR01H040-E22Hh/none-Hi-Kn010G3/L0242-k0 (antibody, human IgG1, kappa, L234A L235A, N297A)
heavy: B1 heavy
chain: B1 chain
light: B1 light with Q27E, L60F
notes: single-arm
Take B17: binding was characterised by a dissociation constant (Kd) of 3.58 nM.

B18: TR01H040-E22Hh/none-Hi-Kn010G3/TR01L009-k0 (antibody, human IgG1, kappa, L234A L235A, N297A)
heavy: B1 heavy
chain: B1 chain
light: B11 light with Q24R, A25S, E27Q, V109L, E112K
notes: single-arm
B18: binding was characterised by a dissociation constant (Kd) of 35.6 nM.

B19: TR01H043-E22Hh/none-Hi-Kn010G3/L0000-k0 (antibody, human IgG1, kappa, L234A L235A, N297A)
heavy: B1 heavy with A23S, Q56N, A111I
chain: B1 chain
light: B1 light with P29L, I38L, L60F, Y94G
notes: single-arm
With B19, the affinity, expressed as Kd, was 15.2 nM. Compared with the last molecule, the Kd is about 2.3-fold lower.

B20: TR01H040-E22Hh/none-Hi-Kn010G3/L0237-k0 (antibody, human IgG1, kappa, L234A L235A, N297A)
heavy: B1 heavy
chain: B1 chain
light: B1 light with S28E, L60F
notes: single-arm
Take B20: the affinity, expressed as Kd, was 10.2 nM.

B21: TR01H040-E22Hh/none-Hi-Kn010G3/TR01L008-k0 (antibody, human IgG1, kappa, L234A L235A, N297A)
heavy: B1 heavy
chain: B1 chain
light: B11 light with L42Q, S48A, Q50R, V109L, E112K
notes: single-arm
Regarding B21, the Kd was 29.3 nM. This Kd is about 2.9-fold higher than that of the molecule before.

B22: TR01H040-E22Hh/none-Hi-Kn010G3/L0240-k0 (antibody, human IgG1, kappa, L234A L235A, N297A)
heavy: B1 heavy
chain: B1 chain
light: B1 light with Q27E, I38L, L60F
notes: single-arm
B22 showed a Kd of 2.17 nM.

B23: TR01H040-E22Hh/none-Hi-Kn010G3/L0232-k0 (antibody, human IgG1, kappa, L234A L235A, N297A)
heavy: B1 heavy
chain: B1 chain
light: B1 light with Q27E, P29L, I38L, L60F, Y94G
notes: single-arm
In turn, B23 displayed a Kd of 38.6 nM.

B24: TR01H041-E22Hh/none-Hi-Kn010G3/L0000-k0 (antibody, human IgG1, kappa, L234A L235A, N297A)
heavy: B1 heavy with A111Y
chain: B1 chain
light: B1 light with P29L, I38L, L60F, Y94G
notes: single-arm
B24 gave a Kd of 31.6 nM.

B25: TR01H044-E22Hh/none-Hi-Kn010G3/L0000-k0 (antibody, human IgG1, kappa, L234A L235A, N297A)
heavy: B1 heavy with A23S, A111I
chain: B1 chain
light: B1 light with P29L, I38L, L60F, Y94G
notes: single-arm
In the case of B25, the Kd was 35.2 nM.

B26: TR01H040-E22Hh/none-Hi-Kn010G3/L0262-k0 (antibody, human IgG1, kappa, L234A L235A, N297A)
heavy: B1 heavy
chain: B1 chain
light: B1 light with S28P, I38L, L60F, Y94A
notes: single-arm
For the molecule B26, the Kd is 18.1 nM.

B27: TR01H045-E22Hh/none-Hi-Kn010G3/L0000-k0 (antibody, human IgG1, kappa, L234A L235A, N297A)
heavy: B1 heavy with A23S
chain: B1 chain
light: B1 light with P29L, I38L, L60F, Y94G
notes: single-arm
As to B27, the Kd is 52.2 nM.

B28: TR01H040-E22Hh/none-Hi-Kn010G3/L0243-k0 (antibody, human IgG1, kappa, L234A L235A, N297A)
heavy: B1 heavy
chain: B1 chain
light: B1 light with Q27E, S28P, I38L, L60F, S61R, Y94G
notes: single-arm
On to B28, for which binding was put at a Kd of 24.6 nM.

B29: TR01H040-E22Hh/none-Hi-Kn010G3/L0228-k0 (antibody, human IgG1, kappa, L234A L235A, N297A)
heavy: B1 heavy
chain: B1 chain
light: B1 light with L60F, Y94V
notes: single-arm
In turn, B29 returned a Kd of 16 nM.

B30: TR01H040-E22Hh/none-Hi-Kn010G3/TR01L016-k0 (antibody, human IgG1, kappa, L234A L235A, N297A)
heavy: B1 heavy
chain: B1 chain
light: B1 light with I38L, Q42L, A48S, R50Q, L60F
notes: single-arm
B30 had a dissociation constant (Kd) of 2.52 nM.

B31: TR01H040-E22Hh/none-Hi-Kn010G3/L0241-k0 (antibody, human IgG1, kappa, L234A L235A, N297A)
heavy: B1 heavy
chain: B1 chain
light: B1 light with Q27E, I38L, L60F, S61W
notes: single-arm
As to B31, the Kd came out at 3.48 nM. This Kd and that of the molecule before are within 1.5-fold of each other.

B32: TR01H040-E22Hh/none-Hi-Kn010G3/L0234-k0 (antibody, human IgG1, kappa, L234A L235A, N297A)
heavy: B1 heavy
chain: B1 chain
light: B1 light with S28E, I38L, L60F, S61R, Y94G
notes: single-arm
As to B32, binding was characterised by a dissociation constant (Kd) of 24 nM.

B33: TR01H040-E22Hh/none-Hi-Kn010G3/L0236-k0 (antibody, human IgG1, kappa, L234A L235A, N297A)
heavy: B1 heavy
chain: B1 chain
light: B1 light with S28E, I38L, L60F, S61W
notes: single-arm
The molecule B33 had a Kd of 5.64 nM.

B34: TR01H040-E22Hh/none-Hi-Kn010G3/L0238-k0 (antibody, human IgG1, kappa, L234A L235A, N297A)
heavy: B1 heavy
chain: B1 chain
light: B1 light with Q27E, S28P, I38L, L60F
notes: single-arm
As for B34, binding was put at a Kd of 2.91 nM. Compared with the last molecule, the Kd is about 1.9-fold lower.

As usually defined, the Kd is the constant that tells how readily two partners part at equilibrium. Read a low Kd as higher affinity.
